# Measured values: patent US20220411491A1 (Hoffmann-La Roche, published 2022)
# Changes are numbered by the printed parent chain.
# B1: 10B10-TCB (bispecific antibody, human IgG1, kappa, L234A L235A)
# light 1: DIQLTQSPHSLSASLGETVSIECLASEGISNYLAWFHQKPGKSPQLLIYYASSLQDGVPSRFSGSGSGTQYSLKISNMQPEDEGVYYCQQGYKYPLTFGSGTKLEIKRTVAAPSVFIFPPSDRKLKSGTASVVCLLNNFYPREAKVQWKVDNALQSGNSQESVTEQDSKDSTYSLSSTLTLSKADYEKHKVYACEVTHQGLSSPVTKSFNRGEC
# light 2: EVQLLESGGGLVQPGGSLRLSCAASGFTFSTYAMNWVRQAPGKGLEWVSRIRSKYNNYATYYADSVKGRFTISRDDSKNTLYLQMNSLRAEDTAVYYCVRHGNFGNSYVSWFAYWGQGTLVTVSSASVAAPSVFIFPPSDEQLKSGTASVVCLLNNFYPREAKVQWKVDNALQSGNSQESVTEQDSKDSTYSLSSTLTLSKADYEKHKVYACEVTHQGLSSPVTKSFNRGEC
# heavy 1: EVQLVESGGGLVQPGRSMKLSCAASGFTFTNFYMAWVRQAPTKALEWVASINTGGGYTYYRDSVKGRFTVSRDNTRSTLYLQMDSLRSEETATYYCARHLTYYGRYYYFDYWGQGVMVTVSSASTKGPSVFPLAPSSKSTSGGTAALGCLVEDYFPEPVTVSWNSGALTSGVHTFPAVLQSSGLYSLSSVVTVPSSSLGTQTYICNVNHKPSNTKVDEKVEPKSCDKTHTCPPCPAPEAAGGPSVFLFPPKPKDTLMISRTPEVTCVVVDVSHEDPEVKFNWYVDGVEVHNAKTKPREEQYNSTYRVVSVLTVLHQDWLNGKEYKCKVSNKALGAPIEKTISKAKGQPREPQVCTLPPSRDELTKNQVSLSCAVKGFYPSDIAVEWESNGQPENNYKTTPPVLDSDGSFFLVSKLTVDKSRWQQGNVFSCSVMHEALHNHYTQKSLSLSPGK
# heavy 2: not shown
# B2: B72-TCB (bispecific antibody, human IgG1, kappa, L234A L235A)
# heavy 1: not shown
# light 1: B1 light 2 with L5V, S30N, S49A, D64A, T80S, R89K, A90T, V99A
# heavy 2: QVQLVQSGAEVKKPGASVKVSCKASGYSFTGYTMNWVRQAPGQGLEWMGLINPYNSDTNYAQKLQGRVTMTTDTSTSTAYMELRSLRSDDTAVYYCARVALRVALDYWGQGTLVTVSSASTKGPSVFPLAPSSKSTSGGTAALGCLVEDYFPEPVTVSWNSGALTSGVHTFPAVLQSSGLYSLSSVVTVPSSSLGTQTYICNVNHKPSNTKVDEKVEPKSCDKTHTCPPCPAPEAAGGPSVFLFPPKPKDTLMISRTPEVTCVVVDVSHEDPEVKFNWYVDGVEVHNAKTKPREEQYNSTYRVVSVLTVLHQDWLNGKEYKCKVSNKALGAPIEKTISKAKGQPREPQVCTLPPSRDELTKNQVSLSCAVKGFYPSDIAVEWESNGQPENNYKTTPPVLDSDGSFFLVSKLTVDKSRWQQGNVFSCSVMHEALHNHYTQKSLSLSPGK
# light 2: DIQMTQSPSSLSASVGDRVTITCKASQNVATHVGWYQQKPGKAPKRLIYSASYRYSGVPSRFSGSGSGTEFTLTISNLQPEDFATYYCQQYNRYPYTFGQGTKLEIKRTVAAPSVFIFPPSDRKLKSGTASVVCLLNNFYPREAKVQWKVDNALQSGNSQESVTEQDSKDSTYSLSSTLTLSKADYEKHKVYACEVTHQGLSSPVTKSFNRGEC
# B3: P1AE5706 (antibody, V domains shown)
# VH: ELQLEQSGGGLVQPGGSLTLSCAASGFTFSKYAMAWVRQAPTKGLEWVASISTGGVNTYYRDSVKARFTISRDNAKNTQYLQMDSLRSEDTATYYCATHTGDYFDYWGQGVMVTVSS
# VL: DIVLTQSPALAVSPGQRATISCRASQSVSISGINLMNWYQQKPGQQPKLLIYHASILASGIPTRFSGSGSGTDFTLTIDPVQADDIATYYCQQTRESPLTFGSGTNLEIK
# B4: P1AE5707 (antibody, V domains shown)
# VH: EVQLLESGGGLVQPGGSLRLSCAASGFTFSKYAMAWVRQAPGKGLEWVASISTGGVNTYYRDSVKARFTISRDNSKNTLYLQMNSLRAEDTAVYYCATHTGDYFDYWGQGTMVTVSS
# VL: DIVMTQSPDSLAVSLGERATINCRASQSVSISGINLMNWYQQKPGQQPKLLIYHASILASGVPDRFSGSGSGTDFTLTISSLQAEDVAVYYCQQTRESPLTFGQGTRLEIK
# B5: P1AE5713 (antibody, V domains shown)
# VH: B4 VH
# VL: DIQMTQSPSSLSASVGDRVTITCRASQSVSISGINLMNWYQQKPGQQPKLLIYHASILASGVPSRFSGSGSGTDFTLTISSLQPEDFATYYCQQTRESPLTFGQGTRLEIK
# B6: P1AE5714 (antibody, V domains shown)
# VH: B4 VH with V2L, S75A
# VL: B4 VL
# B7: P1AE5708 (antibody, V domains shown)
# VH: B4 VH
# VL: B4 VL with R24K, A25S
# B8: P1AE5758 (antibody, V domains shown)
# VH: EVQLVESGGGLVQPGGSLRLSCAASGFSFSNYGMAWVRQAPGKGLEWVASISTGGGNTYYRDSVKGRFTISRDNAKNTLYLQMNSLRAEDTAVYYCTRHDRGGLYWGQGTMVTVSS
# VL: DIVMTQSPDSLAVSLGERATINCKSSKSLLHSNGITYVYWYQQKPGQPPKLLIYRMSNLASGVPDRFSGSGSGTDFTLTISSLQAEDVAVYHCGQLLENPYTFGQGTKLEIK
# B9: P1AE5743 (antibody, V domains shown)
# VH: B8 VH with L11V, G16R
# VL: EIVLTQSPGTLSLSPGERATLSCRASKSLLHSNGITYVYWYQQKPGQAPRLLIYRMSNLASGIPDRFSGSGSGTDFTLTISRLEPEDFAVYHCGQLLENPYTFGQGTKLEIK
# B10: P1AE5749 (antibody, V domains shown)
# VH: B8 VH with E1Q, L11V, G16R, R61A, A75S
# VL: B9 VL
# B11: P1AE5764 (antibody, V domains shown)
# VH: B8 VH with R61A
# VL: B9 VL
# B12: P1AE5738 (antibody, V domains shown)
# VH: B8 VH with E1Q, L11V, G16R, A75S
# VL: B9 VL
# B13: P1AE5763 (antibody, V domains shown)
# VH: B8 VH with R61A
# VL: B8 VL
# B14: P1AE5759 (antibody, V domains shown)
# VH: B8 VH
# VL: B9 VL
# B15: P1AE5754 (antibody, V domains shown)
# VH: B8 VH with L11V, G16R, R61A
# VL: B9 VL
# B16: P1AE5733 (antibody, V domains shown)
# VH: EVQLVESGGGLVQPGRSLKLSCAASGFSFSNYGMAWVRQAATKGLEWVASISTGGGNTYYRDSVKGRFIVSRDNAKNTQYLQMDSLRSEDTATYYCTRHDRGGLYWGQGVMVTVSS
# VL: DIVMTQAPLSVSVTPGESASISCRSSKSLLHSNGITYVYWYFQKPGKSPQVLIYRMSNLASGVPDRFSGSGSETDFTLKISRVEAEDVGIYHCGQLLENPYTFGAGTELELK
# Target: T1, human GPRC5D (human, UniProt Q9NZD1 1-345)
# T1 sequence (Q9NZD1 whole entry): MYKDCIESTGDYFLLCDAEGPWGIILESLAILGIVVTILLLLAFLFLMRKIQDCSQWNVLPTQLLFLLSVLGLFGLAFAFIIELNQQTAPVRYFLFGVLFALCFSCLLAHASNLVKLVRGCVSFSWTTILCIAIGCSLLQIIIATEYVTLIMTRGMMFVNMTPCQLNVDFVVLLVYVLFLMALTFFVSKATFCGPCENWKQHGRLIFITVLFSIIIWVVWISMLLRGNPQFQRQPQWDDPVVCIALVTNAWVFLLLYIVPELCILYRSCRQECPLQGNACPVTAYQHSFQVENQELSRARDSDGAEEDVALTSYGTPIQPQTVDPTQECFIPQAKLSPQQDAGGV
# Assay: cell-based or functional assay
Binder,"EC50 of in vitro killing, AMO-1 [nM]","EC50 of in vitro killing, EJM [nM]","EC50 of in vitro killing, L363 [nM]","EC50 of in vitro killing, MOLP-2 [nM]","EC50 of in vitro killing, NCI-H929 [nM]","EC50 of in vitro killing, OPM-2 [nM]","EC50 of in vitro killing, RPMI [nM]"
B1,0.084,0.079,0.034,0.16,0.056,0.028,0.965
B2,0.109,0.06,0.058,0.124,0.058,0.171,0.193

# Target: T1, human GPRC5D
# Assay: cell-based or functional assay
# Remark: another data set of the same source
row,CAR-J2 EC50 [µg/mL],Binder
1,0.0039,B3
2,0.0424,B4
3,0.0769,B5
4,0.0055,B6
5,0.456,B7

# Target: T1, human GPRC5D
# Assay: cell-based or functional assay
# Remark: another data set of the same source
row,CAR-J2 EC50 [µg/mL],Binder
1,0.19,B8
2,0.583,B9
3,0.0826,B10
4,0.0782,B11
5,0.397,B12
6,0.00547,B13
7,0.0157,B14
8,0.00889,B15
9,0.00265,B16
